From patent US7794927B2, “Method for identifying agonists or antagonists of the G-protein coupled receptor mas-like 1” (priority 2002, dated 2010)
Ends that are not written are not given here.

Experiments:
[1] = biological target: T1, G protein-coupled receptor mas-like 1 (Homo sapiens, UniProt Q96LB1); experiment: FLIPR assay of stimulation of mas-like 1 transiently expressed in CHO-K1 cells (Fluo4 Ca2+ fluorescence); assay type: cell-based; conditions: for formation of fluorescence in the cells: CHO-K1 cells transiently expressing mas-like 1, zero value about 20 fluorescence intensity units; for agonistic effects on mas-like 1: test system designed in accordance with the detection method
T1 construct: The receptor has therefore been amplified starting from genomic DNA using a polymerase chain reaction (PCR); expressed in transfected cells; host or cells: CHO-K1 (transient, pcDNA3.1)
T1 sequence (Q96LB1 1-330): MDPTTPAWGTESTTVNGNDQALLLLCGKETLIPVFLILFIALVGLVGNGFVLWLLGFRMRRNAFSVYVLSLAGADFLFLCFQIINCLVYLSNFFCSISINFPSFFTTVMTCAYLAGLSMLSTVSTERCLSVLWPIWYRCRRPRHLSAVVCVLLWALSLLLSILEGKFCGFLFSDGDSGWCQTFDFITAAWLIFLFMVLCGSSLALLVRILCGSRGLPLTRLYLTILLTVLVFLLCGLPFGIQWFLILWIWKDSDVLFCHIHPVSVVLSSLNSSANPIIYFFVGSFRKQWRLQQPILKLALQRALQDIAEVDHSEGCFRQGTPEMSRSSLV
Protocol: CHO-K1 cells were cultivated in basal Iscove's medium supplemented with 10% fetal bovine serum, 10 000 U/ml-10 000 μg/ml penicillin-streptomycin, gentamycin and 2 mM glutamine.
Iscove's medium is commercially available inter alia from Biochrom, Berlin. The composition of Iscove's medium is described in “Iscove, N. N., Melchers, F., Journal of Experimental Medicine 147, 923-933 (1978)”. The CHO-K1 cells were applied in an amount of 2×10^5 cells to a 35 mm culture dish for the transient transfection. The cells were transfected after incubation for about 24 hours or at a confluence of 50-80% with 2 μg of DNA using Lipofectamine reagent which is commercially available inter alia from Invitrogen Life Technologies, Karlsruhe.
About 16 to 18 hours after the transfection, the cells were transferred into 96-well microtiter plates with a density of about 80 000 cells per well. Incubation was then continued for 18 to 24 hours. After this, 95 μl of HBSS (Hank's buffered saline solution) which contained 20 mM HEPES, 2.5 mM probenecid, 4 μM Fluo4 and 1% fetal bovine serum were added, and incubation was carried out in the presence of 5% CO2 at 37° C. for 1 hour. Fluo4 is a dye which fluoresces in the presence of Ca^2+. Fluo4 is sold commercially inter alia by Molecular Probes Europe BV, Leiden. After the incubation, the cells were washed three times with PBS (phosphate buffered saline) which contained 1 mM MgCl2, 1 mM EDTA and 2.5 mM probenecid.
After the last washing step, about 100 μl of the solution were left on the cells in each well. The peptides to be tested were dissolved in water or DMSO (dimethyl sulfoxide) in a concentration of 2 mM. The appropriate dilutions of the final concentration ([…]) were prepared starting from such a stock solution. The fluorescence was measured using a FLIPR (Fluorometric Imaging Plate Reader; Molecular Devices GmbH, Ismaning) for a total of 3 minutes at 1-second intervals for the first minute and at 3-second intervals during the second and third minute. The measurements between 18 seconds and 37 seconds were used to determine the agonistic effect.
Various peptides were tested for their property of stimulating the G protein-coupled receptor mas-like 1. The test was carried out using FLIPR technology. The receptor was for this purpose transiently expressed in CHO-K1 cells.

[2] = biological target: T1, G protein-coupled receptor mas-like 1; experiment: Arachidonic acid liberation in transiently transfected CHO-K1 cells; assay type: cell-based

concentration dependence of activation of the receptors ([1]; concentration range from 5×10^−6 to 1×10^−5M)	liberation of arachidonic acid [2]	agonistic effects on mas-like 1 [1]	Substance	formation of fluorescence in the cells [1]
			H-Phe-Leu-Phe-Gln-Pro-Gln-Arg-Pro-NH2 (H-FLFQPQRP-NH2; listed as Homo sapiens) [neuropeptide FF, natural ligand of mas-like 1]	ca. 2 000 fluorescence intensity units
linear dependence	liberated arachidonic acid		PKPQQFFGLM [substance P2-11]	ca. 2 500 fluorescence intensity units
		Agonistic effects were shown	substance P1-9: N-terminal fragment of substance P, SEQ ID NO:12 (RPKPQQFFG; listed as Homo sapiens)	
		Agonistic effects were shown	substance P4-11: fragment of substance P, SEQ ID NO:11 (PQQFFGL; listed as Homo sapiens)	
